From patent publication US20120121613

Legend:
[1] = molecular target: PEG-FVIII (FVIII mutein directly, non-cleavably conjugated to PEG) (UniProt P00451)
[2] = molecular target: PEG-linker-FVIII (FVIII mutein conjugated to PEG through a thrombin-cleavable linker, linker not named in Example 2) (UniProt P00451)
unmodified FVIII mutein = unmodified FVIII mutein (UniProt P00451)

thrombin was tested, and the “SDS-PAGE after thrombin digestion” value [1] was “there was no removal of PEG-conjugated light chain (lane 4)”, the “SDS-PAGE after thrombin digestion (30 min at 37° C.)” value [2] was “the PEG-conjugated light chain almost completely disappeared in SDS-PAGE analysis, indicating a complete removal of PEG” and the “SDS-PAGE after thrombin digestion (30 min at 37° C.)” value (unmodified FVIII mutein) was “After thrombin digestion, the FVIII light and heavy chains disappear and are replaced by cleavage products”.
